Experiment [1] addresses T1, N-terminally Flag-tagged POLD1 C1076S (human, UniProt P28340 1-1107, C1076S).
T1 construct: DNA polymerase delta catalytic subunit POLD1/p125, human; variant made by site-directed mutagenesis; also called CS; Pol δ-CS (bait subunit); source: Sf9 insect cells, baculovirus co-infection, in lysate; Flag-purified (Flag-M2 agarose, 3x Flag peptide elution); not shown: Flag, N-terminal, kept
T1 sequence (looked up): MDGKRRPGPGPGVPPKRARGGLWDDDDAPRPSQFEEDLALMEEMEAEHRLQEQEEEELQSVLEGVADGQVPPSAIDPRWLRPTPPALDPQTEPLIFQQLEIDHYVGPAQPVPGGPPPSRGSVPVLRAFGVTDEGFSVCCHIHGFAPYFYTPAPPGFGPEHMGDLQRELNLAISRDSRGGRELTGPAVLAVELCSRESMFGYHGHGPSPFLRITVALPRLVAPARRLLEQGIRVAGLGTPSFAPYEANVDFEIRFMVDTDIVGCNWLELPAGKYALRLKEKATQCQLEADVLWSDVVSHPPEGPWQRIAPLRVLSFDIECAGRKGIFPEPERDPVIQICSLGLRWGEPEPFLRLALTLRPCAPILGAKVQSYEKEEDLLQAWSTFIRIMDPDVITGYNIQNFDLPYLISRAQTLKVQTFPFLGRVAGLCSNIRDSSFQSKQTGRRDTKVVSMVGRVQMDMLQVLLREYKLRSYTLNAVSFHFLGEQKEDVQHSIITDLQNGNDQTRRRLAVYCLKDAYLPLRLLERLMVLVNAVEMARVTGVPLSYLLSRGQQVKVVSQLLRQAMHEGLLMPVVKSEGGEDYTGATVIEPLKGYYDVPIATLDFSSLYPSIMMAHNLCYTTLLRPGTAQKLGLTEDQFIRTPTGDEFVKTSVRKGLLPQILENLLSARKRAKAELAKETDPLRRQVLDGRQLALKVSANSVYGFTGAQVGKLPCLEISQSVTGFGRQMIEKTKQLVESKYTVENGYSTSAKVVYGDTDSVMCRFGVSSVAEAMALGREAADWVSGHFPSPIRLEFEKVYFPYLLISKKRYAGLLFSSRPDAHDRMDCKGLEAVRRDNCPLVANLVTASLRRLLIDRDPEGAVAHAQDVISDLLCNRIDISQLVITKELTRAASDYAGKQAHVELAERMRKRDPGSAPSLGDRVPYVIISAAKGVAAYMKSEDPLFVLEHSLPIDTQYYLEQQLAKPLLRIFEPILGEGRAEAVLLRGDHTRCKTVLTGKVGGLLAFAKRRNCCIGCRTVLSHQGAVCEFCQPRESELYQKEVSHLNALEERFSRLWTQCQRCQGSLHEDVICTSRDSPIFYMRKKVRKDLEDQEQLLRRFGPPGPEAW
Put plainly: pull-down; Flag-pull down (Flag-M2 agarose) from lysate of Sf9 cells co-expressing Flag-POLD1 variant, POLD2, POLD3, POLD4 and untagged PCNA; 50 mM Tris-HCl pH 8.0, 200 mM NaCl, 0.25% NP-40, 4°C; SDS-PAGE with protein stain. The conditions noted are these: partners not purified.

In experiment [2] the target is T2, N-terminally Flag-tagged POLD1 (catalytic subunit of human DNA polymerase delta), wild type (human, UniProt P28340 1-1107).
T2 construct: DNA polymerase delta catalytic subunit POLD1/p125, human; also called p125; Flag-POLD1; source: Sf9 insect cells, baculovirus co-infection, in lysate; Flag-purified (Flag-M2 agarose, 3x Flag peptide elution); not shown: Flag, N-terminal, kept
T2 sequence (looked up): T1 sequence (looked up) with S1076C
The experiment is described as above. The conditions noted are these: partners not purified.

From article PMC6613617, “Human DNA polymerase delta requires an iron–sulfur cluster for high-fidelity DNA synthesis” (Life Science Alliance, 2019) come the findings set out here.

Where a chain is given by its changes, count along the chain named. In names and notes the source's numbering stands.

B1: POLD2 (accessory subunit of human DNA polymerase delta), untagged (natural protein)
chain: not shown
notes: DNA polymerase delta subunit 2 POLD2/p50, human; Expressed from a cassette with self-cleaving T2A peptides; A T2A remnant probably stays on its C-terminus (my surmise); also called p50; source: Sf9 insect cells, baculovirus co-infection (POLD2-T2A-POLD3-T2A-POLD4 or POLD2-T2A-POLD3 cassette), in lysate; co-purified with Flag-POLD1
With B1, the binding result in experiment [1] is recorded as “binds”.

B2: POLD4 (accessory subunit of human DNA polymerase delta), untagged (natural protein, UniProt Q9HCU8 1-107, looked up)
chain: MGRKRLITDSYPVVKRREGPAGHSKGELAPELGEEPQPRDEEEAELELLRQFDLAWQYGPCTGITRLQRWCRAKQMGLEPPPEVWQVLKTHPGDPRFQCSLWHLYPL
notes: DNA polymerase delta subunit 4 POLD4/p12, human; Expressed from a cassette with self-cleaving T2A peptides; A residue of the T2A probably stays on its N-terminus (my surmise); also called p12; source: Sf9 insect cells, baculovirus co-infection (POLD2-T2A-POLD3-T2A-POLD4 cassette), in lysate; co-purified with Flag-POLD1
On to B2, for which the binding result in experiment [2] and in experiment [1] was “binds” in each case.

B3: POLD3 (accessory subunit of human DNA polymerase delta), untagged (natural protein, UniProt Q15054 1-466, looked up)
chain: MADQLYLENIDEFVTDQNKIVTYKWLSYTLGVHVNQAKQMLYDYVERKRKENSGAQLHVTYLVSGSLIQNGHSCHKVAVVREDKLEAVKSKLAVTASIHVYSIQKAMLKDSGPLFNTDYDILKSNLQNCSKFSAIQCAAAVPRAPAESSSSSKKFEQSHLHMSSETQANNELTTNGHGPPASKQVSQQPKGIMGMFASKAAAKTQETNKETKTEAKEVTNASAAGNKAPGKGNMMSNFFGKAAMNKFKVNLDSEQAVKEEKIVEQPTVSVTEPKLATPAGLKKSSKKAEPVKVLQKEKKRGKRVALSDDETKETENMRKKRRRIKLPESDSSEDEVFPDSPGAYEAESPSPPPPPSPPLEPVPKTEPEPPSVKSSSGENKRKRKRVLKSKTYLDGEGCIVTEKVYESESCTDSEEELNMKTSSVHRPPAMTVKKEPREERKGPKKGTAALGKANRQVSITGFFQRK
notes: DNA polymerase delta subunit 3 POLD3/p66, human; Expressed from a cassette with self-cleaving T2A peptides; T2A remnants probably stay on its ends and differ between the two cassettes (my surmise); also called p66; source: Sf9 insect cells, baculovirus co-infection (POLD2-T2A-POLD3-T2A-POLD4 or POLD2-T2A-POLD3 cassette), in lysate; co-purified with Flag-POLD1
With B3, the binding result in experiment [2] and in experiment [1] was “binds” in each case.
